These results are taken from patent US20170096493A1 (EISAI R AND D MANAGEMENT, published 2017).

This assay concerns the target T1, Human Notch4-NRR domain Fc fusion protein (human, UniProt Q99466 1046-1445, limits assumed).
T1 construct: Expressed in a CHO cell line, used from culture supernatant; 1 is named; also called Human Notch4-NRR Fusion Protein; not shown: Fc
T1 sequence: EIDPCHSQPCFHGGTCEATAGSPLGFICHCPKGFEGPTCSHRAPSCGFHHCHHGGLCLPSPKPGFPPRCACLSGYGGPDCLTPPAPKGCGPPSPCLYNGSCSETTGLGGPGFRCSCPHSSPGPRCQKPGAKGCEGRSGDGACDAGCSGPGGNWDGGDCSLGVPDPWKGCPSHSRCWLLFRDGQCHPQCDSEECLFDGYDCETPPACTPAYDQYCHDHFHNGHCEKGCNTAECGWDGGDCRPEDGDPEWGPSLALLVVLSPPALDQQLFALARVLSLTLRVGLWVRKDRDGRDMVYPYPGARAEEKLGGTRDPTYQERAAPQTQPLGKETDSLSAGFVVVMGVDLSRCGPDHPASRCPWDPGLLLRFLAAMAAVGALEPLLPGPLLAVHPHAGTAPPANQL
The assay is described as follows: SPR (Biacore) as for Table 30; Notch4-NRR-Fc captured, antibody injected; averaged, N=6. As for the experimental part:
Kinetic analysis of further anti-Notch4 inhibitory humanized antibodies was carried out as follows. Human Notch4-NRR domain Fc fusion proteins were expressed with a CHO cell line. The antigen in the culture supernatant was captured by the anti-human Notch4 antibody fixed on a CM5 sensor chip that recognizes different epitopes of human Notch4. The humanized anti-human Notch4 antibody was then injected onto the sensor chip at various concentrations. The interaction and disassociation constants thereof were calculated according to manufacturer's instructions.

B1: HK2L4 (antibody, human IgG2, kappa)
heavy: EVQLVESGGGLVQPGGSLRLSCAASGFTFSSYGMSWVRQAPGKGLELVSTINSNGGRTYYPDSVKGRFTISRDNSKNTLYLQMGSLRAEDMAVYYCARDQGFAYWGQGTLVTVSSASTKGPSVFPLAPCSRSTSESTAALGCLVKDYFPEPVTVSWNSGALTSGVHTFPAVLQSSGLYSLSSVVTVPSSNFGTQTYTCNVDHKPSNTKVDKTVERKCCVECPPCPAPPAAAPSVFLFPPKPKDTLMISRTPEVTCVVVDVSHEDPEVQFNWYVDGVEVHNAKTKPREEQFNSTFRVVSVLTVVHQDWLNGKEYKCKVSNKGLPAPIEKTISKTKGQPREPQVYTLPPSREEMTKNQVSLTCLVKGFYPSDIAVEWESNGQPENNYKTTPPMLDSDGSFFLYSKLTVDKSRWQQGNVFSCSVMHEALHNHYTQKSLSLSPGK
light: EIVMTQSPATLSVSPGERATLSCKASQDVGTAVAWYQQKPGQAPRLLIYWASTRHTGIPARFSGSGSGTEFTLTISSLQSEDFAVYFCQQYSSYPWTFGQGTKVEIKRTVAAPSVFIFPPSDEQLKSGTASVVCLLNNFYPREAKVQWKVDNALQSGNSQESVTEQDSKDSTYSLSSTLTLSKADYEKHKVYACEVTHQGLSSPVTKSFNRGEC
notes: Humanized IgG2 (V234A, G237A)/κ; also called No. 14
As for B1, binding was characterised by a dissociation constant (Kd) of 0.634 nM, the koff was found to be 0.00117 s⁻¹ and the kon was determined as 1.89e+06 M⁻¹ s⁻¹.

B2: HK3L3 (antibody, human IgG2, kappa)
heavy: EVQLVESGGGLVQPGGSLRLSCAASGFTFSSYGMSWVRQAPGKGLELVATINSNGGRTYYPDSVKGRFTISRDNSKNTLYLQMGSLKAEDMAVYYCARDQGFAYWGQGTLVTVSSASTKGPSVFPLAPCSRSTSESTAALGCLVKDYFPEPVTVSWNSGALTSGVHTFPAVLQSSGLYSLSSVVTVPSSNFGTQTYTCNVDHKPSNTKVDKTVERKCCVECPPCPAPPAAAPSVFLFPPKPKDTLMISRTPEVTCVVVDVSHEDPEVQFNWYVDGVEVHNAKTKPREEQFNSTFRVVSVLTVVHQDWLNGKEYKCKVSNKGLPAPIEKTISKTKGQPREPQVYTLPPSREEMTKNQVSLTCLVKGFYPSDIAVEWESNGQPENNYKTTPPMLDSDGSFFLYSKLTVDKSRWQQGNVFSCSVMHEALHNHYTQKSLSLSPGK
light: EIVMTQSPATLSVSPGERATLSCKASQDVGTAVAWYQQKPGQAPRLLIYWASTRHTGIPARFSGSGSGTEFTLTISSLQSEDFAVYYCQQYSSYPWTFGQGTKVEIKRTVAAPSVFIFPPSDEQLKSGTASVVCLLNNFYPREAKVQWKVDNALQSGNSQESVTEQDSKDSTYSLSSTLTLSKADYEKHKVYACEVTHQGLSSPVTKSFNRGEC
notes: Humanized IgG2 (V234A, G237A)/κ; also called No. 18
Turning to B2, binding was put at a Kd of 0.897 nM, the koff is 0.00104 s⁻¹ and the on-rate (kon) came out at 1.22e+06 M⁻¹ s⁻¹.

B3: HK2L3 (antibody, human IgG2, kappa)
heavy: EVQLVESGGGLVQPGGSLRLSCAASGFTFSSYGMSWVRQAPGKGLELVSTINSNGGRTYYPDSVKGRFTISRDNSKNTLYLQMGSLRAEDMAVYYCARDQGFAYWGQGTLVTVSSASTKGPSVFPLAPCSRSTSESTAALGCLVKDYFPEPVTVSWNSGALTSGVHTFPAVLQSSGLYSLSSVVTVPSSNFGTQTYTCNVDHKPSNTKVDKTVERKCCVECPPCPAPPAAAPSVFLFPPKPKDTLMISRTPEVTCVVVDVSHEDPEVQFNWYVDGVEVHNAKTKPREEQFNSTFRVVSVLTVVHQDWLNGKEYKCKVSNKGLPAPIEKTISKTKGQPREPQVYTLPPSREEMTKNQVSLTCLVKGFYPSDIAVEWESNGQPENNYKTTPPMLDSDGSFFLYSKLTVDKSRWQQGNVFSCSVMHEALHNHYTQKSLSLSPGK
light: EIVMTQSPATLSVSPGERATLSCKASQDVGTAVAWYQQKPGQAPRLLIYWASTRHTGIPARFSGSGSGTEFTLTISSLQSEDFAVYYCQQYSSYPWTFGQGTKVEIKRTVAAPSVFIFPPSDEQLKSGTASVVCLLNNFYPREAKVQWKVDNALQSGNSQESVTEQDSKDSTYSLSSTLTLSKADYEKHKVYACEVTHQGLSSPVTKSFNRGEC
notes: Humanized IgG2 (V234A, G237A)/κ; also called No. 13
Consider B3, for which the dissociation constant Kd stood at 0.682 nM, the koff was found to be 0.00109 s⁻¹ and the kon amounted to 1.62e+06 M⁻¹ s⁻¹.

B4: HA2L5 (antibody, human IgG2, kappa)
heavy: EVQLVESGGGLVQPGGSLRLSCAASGFTFSSYGMSWVRQAPGKGLELVSTINSNGGRTYYANSVKGRFTISRDNSKNTLYLQMGSLRAEDMAVYYCARDQGFAYWGQGTLVTVSSASTKGPSVFPLAPCSRSTSESTAALGCLVKDYFPEPVTVSWNSGALTSGVHTFPAVLQSSGLYSLSSVVTVPSSNFGTQTYTCNVDHKPSNTKVDKTVERKCCVECPPCPAPPAAAPSVFLFPPKPKDTLMISRTPEVTCVVVDVSHEDPEVQFNWYVDGVEVHNAKTKPREEQFNSTFRVVSVLTVVHQDWLNGKEYKCKVSNKGLPAPIEKTISKTKGQPREPQVYTLPPSREEMTKNQVSLTCLVKGFYPSDIAVEWESNGQPENNYKTTPPMLDSDGSFFLYSKLTVDKSRWQQGNVFSCSVMHEALHNHYTQKSLSLSPGK
light: DIQMTQSPSSLSASVGDRVTITCKASQDVGTAVAWYQQKPGKSPKLLIYWASTRHTGVPSRFSGSGSGTDFTLTISSLQPEDVATYFCQQYSSYPWTFGQGTKVEIKRTVAAPSVFIFPPSDEQLKSGTASVVCLLNNFYPREAKVQWKVDNALQSGNSQESVTEQDSKDSTYSLSSTLTLSKADYEKHKVYACEVTHQGLSSPVTKSFNRGEC
notes: Humanized IgG2 (V234A, G237A)/κ; also called No. 30
The molecule B4 yielded a dissociation constant Kd of 0.612 nM, a koff of 0.00136 s⁻¹ and a kon of 2.49e+06 M⁻¹ s⁻¹.

B5: HK2L5 (antibody, human IgG2, kappa)
heavy: EVQLVESGGGLVQPGGSLRLSCAASGFTFSSYGMSWVRQAPGKGLELVSTINSNGGRTYYPDSVKGRFTISRDNSKNTLYLQMGSLRAEDMAVYYCARDQGFAYWGQGTLVTVSSASTKGPSVFPLAPCSRSTSESTAALGCLVKDYFPEPVTVSWNSGALTSGVHTFPAVLQSSGLYSLSSVVTVPSSNFGTQTYTCNVDHKPSNTKVDKTVERKCCVECPPCPAPPAAAPSVFLFPPKPKDTLMISRTPEVTCVVVDVSHEDPEVQFNWYVDGVEVHNAKTKPREEQFNSTFRVVSVLTVVHQDWLNGKEYKCKVSNKGLPAPIEKTISKTKGQPREPQVYTLPPSREEMTKNQVSLTCLVKGFYPSDIAVEWESNGQPENNYKTTPPMLDSDGSFFLYSKLTVDKSRWQQGNVFSCSVMHEALHNHYTQKSLSLSPGK
light: DIQMTQSPSSLSASVGDRVTITCKASQDVGTAVAWYQQKPGKSPKLLIYWASTRHTGVPSRFSGSGSGTDFTLTISSLQPEDVATYFCQQYSSYPWTFGQGTKVEIKRTVAAPSVFIFPPSDEQLKSGTASVVCLLNNFYPREAKVQWKVDNALQSGNSQESVTEQDSKDSTYSLSSTLTLSKADYEKHKVYACEVTHQGLSSPVTKSFNRGEC
notes: Humanized IgG2 (V234A, G237A)/κ; also called No. 15
B5: the Kd was 0.549 nM, the koff is 0.00112 s⁻¹ and the kon came to 2.07e+06 M⁻¹ s⁻¹.

B6: HA2L3 (antibody, human IgG2, kappa)
heavy: EVQLVESGGGLVQPGGSLRLSCAASGFTFSSYGMSWVRQAPGKGLELVSTINSNGGRTYYANSVKGRFTISRDNSKNTLYLQMGSLRAEDMAVYYCARDQGFAYWGQGTLVTVSSASTKGPSVFPLAPCSRSTSESTAALGCLVKDYFPEPVTVSWNSGALTSGVHTFPAVLQSSGLYSLSSVVTVPSSNFGTQTYTCNVDHKPSNTKVDKTVERKCCVECPPCPAPPAAAPSVFLFPPKPKDTLMISRTPEVTCVVVDVSHEDPEVQFNWYVDGVEVHNAKTKPREEQFNSTFRVVSVLTVVHQDWLNGKEYKCKVSNKGLPAPIEKTISKTKGQPREPQVYTLPPSREEMTKNQVSLTCLVKGFYPSDIAVEWESNGQPENNYKTTPPMLDSDGSFFLYSKLTVDKSRWQQGNVFSCSVMHEALHNHYTQKSLSLSPGK
light: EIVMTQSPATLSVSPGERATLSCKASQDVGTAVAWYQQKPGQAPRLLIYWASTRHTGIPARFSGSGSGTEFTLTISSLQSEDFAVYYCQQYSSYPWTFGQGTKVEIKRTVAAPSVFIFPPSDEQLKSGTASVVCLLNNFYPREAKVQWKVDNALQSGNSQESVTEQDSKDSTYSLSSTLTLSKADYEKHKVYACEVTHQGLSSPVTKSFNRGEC
notes: Humanized IgG2 (V234A, G237A)/κ; also called No. 28
In the case of B6, the Kd was found to be 0.727 nM, the koff worked out at 0.00137 s⁻¹ and the kon stood at 1.95e+06 M⁻¹ s⁻¹.

B7: HK3L4 (antibody, human IgG2, kappa)
heavy: EVQLVESGGGLVQPGGSLRLSCAASGFTFSSYGMSWVRQAPGKGLELVATINSNGGRTYYPDSVKGRFTISRDNSKNTLYLQMGSLKAEDMAVYYCARDQGFAYWGQGTLVTVSSASTKGPSVFPLAPCSRSTSESTAALGCLVKDYFPEPVTVSWNSGALTSGVHTFPAVLQSSGLYSLSSVVTVPSSNFGTQTYTCNVDHKPSNTKVDKTVERKCCVECPPCPAPPAAAPSVFLFPPKPKDTLMISRTPEVTCVVVDVSHEDPEVQFNWYVDGVEVHNAKTKPREEQFNSTFRVVSVLTVVHQDWLNGKEYKCKVSNKGLPAPIEKTISKTKGQPREPQVYTLPPSREEMTKNQVSLTCLVKGFYPSDIAVEWESNGQPENNYKTTPPMLDSDGSFFLYSKLTVDKSRWQQGNVFSCSVMHEALHNHYTQKSLSLSPGK
light: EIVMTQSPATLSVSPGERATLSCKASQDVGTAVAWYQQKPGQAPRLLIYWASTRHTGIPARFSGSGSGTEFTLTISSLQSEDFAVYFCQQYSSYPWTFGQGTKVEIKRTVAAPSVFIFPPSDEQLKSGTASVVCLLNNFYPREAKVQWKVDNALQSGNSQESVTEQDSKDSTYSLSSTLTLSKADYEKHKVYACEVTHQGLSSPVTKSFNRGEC
notes: Humanized IgG2 (V234A, G237A)/κ; also called No. 19
With B7, the dissociation constant (Kd) is 0.755 nM, the koff was determined as 0.0012 s⁻¹ and the association rate constant (kon) is 1.61e+06 M⁻¹ s⁻¹.

B8: HK3L5 (antibody, human IgG2, kappa)
heavy: EVQLVESGGGLVQPGGSLRLSCAASGFTFSSYGMSWVRQAPGKGLELVATINSNGGRTYYPDSVKGRFTISRDNSKNTLYLQMGSLKAEDMAVYYCARDQGFAYWGQGTLVTVSSASTKGPSVFPLAPCSRSTSESTAALGCLVKDYFPEPVTVSWNSGALTSGVHTFPAVLQSSGLYSLSSVVTVPSSNFGTQTYTCNVDHKPSNTKVDKTVERKCCVECPPCPAPPAAAPSVFLFPPKPKDTLMISRTPEVTCVVVDVSHEDPEVQFNWYVDGVEVHNAKTKPREEQFNSTFRVVSVLTVVHQDWLNGKEYKCKVSNKGLPAPIEKTISKTKGQPREPQVYTLPPSREEMTKNQVSLTCLVKGFYPSDIAVEWESNGQPENNYKTTPPMLDSDGSFFLYSKLTVDKSRWQQGNVFSCSVMHEALHNHYTQKSLSLSPGK
light: DIQMTQSPSSLSASVGDRVTITCKASQDVGTAVAWYQQKPGKSPKLLIYWASTRHTGVPSRFSGSGSGTDFTLTISSLQPEDVATYFCQQYSSYPWTFGQGTKVEIKRTVAAPSVFIFPPSDEQLKSGTASVVCLLNNFYPREAKVQWKVDNALQSGNSQESVTEQDSKDSTYSLSSTLTLSKADYEKHKVYACEVTHQGLSSPVTKSFNRGEC
notes: Humanized IgG2 (V234A, G237A)/κ; also called No. 20
The molecule B8 showed a Kd of 0.601 nM, a dissociation rate constant (koff) of 0.00102 s⁻¹ and an on-rate constant (kon) of 1.72e+06 M⁻¹ s⁻¹.

B9: HA2L4 (antibody, human IgG2, kappa)
heavy: EVQLVESGGGLVQPGGSLRLSCAASGFTFSSYGMSWVRQAPGKGLELVSTINSNGGRTYYANSVKGRFTISRDNSKNTLYLQMGSLRAEDMAVYYCARDQGFAYWGQGTLVTVSSASTKGPSVFPLAPCSRSTSESTAALGCLVKDYFPEPVTVSWNSGALTSGVHTFPAVLQSSGLYSLSSVVTVPSSNFGTQTYTCNVDHKPSNTKVDKTVERKCCVECPPCPAPPAAAPSVFLFPPKPKDTLMISRTPEVTCVVVDVSHEDPEVQFNWYVDGVEVHNAKTKPREEQFNSTFRVVSVLTVVHQDWLNGKEYKCKVSNKGLPAPIEKTISKTKGQPREPQVYTLPPSREEMTKNQVSLTCLVKGFYPSDIAVEWESNGQPENNYKTTPPMLDSDGSFFLYSKLTVDKSRWQQGNVFSCSVMHEALHNHYTQKSLSLSPGK
light: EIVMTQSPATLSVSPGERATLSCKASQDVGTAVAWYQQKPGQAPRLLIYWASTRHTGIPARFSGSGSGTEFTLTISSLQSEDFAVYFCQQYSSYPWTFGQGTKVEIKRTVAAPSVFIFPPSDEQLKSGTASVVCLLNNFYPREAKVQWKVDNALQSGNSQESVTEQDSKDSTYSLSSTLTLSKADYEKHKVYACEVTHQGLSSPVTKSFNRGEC
notes: Humanized IgG2 (V234A, G237A)/κ; also called No. 29
Turning to B9, the Kd was 0.738 nM, the koff turned out to be 0.00169 s⁻¹ and the association rate constant (kon) is 2.33e+06 M⁻¹ s⁻¹.
